Reference: the Immune Epitope Database (IEDB)

Key:
Test in all cases: IEDB peptide-MHC binding, purified MHC/competitive/radioactivity; filed as Kd, often an IC50 or EC50 that approximates it; ≥ and ≤ were set here for values at or beyond the usual limits of such assays
Conditions in all cases: source organism: Lake Victoria marburgvirus - Angola2005
HLA-A*02:03 = target: HLA-A*02:03
HLA-A*02:06 = target: HLA-A*02:06
HLA-A*30:02 = target: HLA-A*30:02
HLA-A*32:01 = target: HLA-A*32:01
HLA-B*15:01 = target: HLA-B*15:01
HLA-A*24:02 = target: HLA-A*24:02
HLA-B*40:01 = target: HLA-B*40:01
HLA-B*44:02 = target: HLA-B*44:02
HLA-A*26:01 = target: HLA-A*26:01
HLA-A*68:02 = target: HLA-A*68:02
HLA-B*07:02 = target: HLA-B*07:02
HLA-A*30:01 = target: HLA-A*30:01
HLA-A*68:01 = target: HLA-A*68:01
HLA-B*08:01 = target: HLA-B*08:01
HLA-A*23:01 = target: HLA-A*23:01

Sequence: GLYPQLSAI
- Kd (HLA-A*02:03): 1.4 nM
- Kd (HLA-A*02:06): 6.9 nM

Sequence: KVKNEVASF
- Kd (HLA-A*30:02): 158 nM
- Kd (HLA-A*32:01): 2.9 nM
- Kd (HLA-B*15:01): 5.6 nM

Sequence: HYSPLILAL
- Kd (HLA-A*24:02): 64 nM

Sequence: GEYAPFARV
- Kd (HLA-B*40:01): 107 nM
- Kd (HLA-B*44:02): 214 nM

Sequence: EVASFKQAL
- Kd (HLA-A*26:01): 86 nM
- Kd (HLA-A*68:02): 2.7 nM
- Kd (HLA-B*07:02): 250 nM

Sequence: TVLEFILQK
- Kd (HLA-A*30:01): 365 nM
- Kd (HLA-A*68:01): 2.2 nM

Sequence: APFARVLNL
- Kd (HLA-B*07:02): 0.21 nM
- Kd (HLA-B*08:01): 67 nM

Sequence: LIVKTVLEF
- Kd (HLA-A*23:01): 109 nM
- Kd (HLA-B*15:01): 0.8 nM
